Key:
ZF-NB23 [1] = target: ZF-NB23
ZF-NB23 [2] = target: ZF-NB23; remark: listed apart in the source
ZF-NB23 [3] = target: ZF-NB23; remark: listed apart in the source

ZF-NB23, sequence (heavy, as listed by the source): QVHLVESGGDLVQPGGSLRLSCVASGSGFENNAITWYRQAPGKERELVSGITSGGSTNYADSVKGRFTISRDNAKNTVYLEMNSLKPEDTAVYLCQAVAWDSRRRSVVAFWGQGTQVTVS

Substance: recombinant trimeric SARS-CoV-2 spike protein (from UniProt P0DTC2 14-1273) (natural protein)
- MDC (minimal detectable concentration of Spike in the fully de novo sensor) (NB15_C1-T7 RNAP): 33.3 nM
- MDC (minimal detectable concentration of Spike in the fully de novo sensor) (ZF-NB23_D1): 33.3 nM
- MDC (minimal detectable concentration of Spike in the ZF-NB23 / NB15-T7 RNAP sensor) (ZF-NB23 [1]): 13 pM
- MDC (minimal detectable concentration of Spike, trehalase / glucose read-out) (ZF-NB23 [2]): 330 pM
- MDC (minimal detectable concentration of Spike in the ZF-NB23 / NB15-T7 RNAP sensor, 10% nasal swab sample) (ZF-NB23 [3]): 40 pM

Reference: PMC13389190
